± gives the standard deviation of the averaged measurements.
These sequences were tested on Saccharomyces cerevisiae (assay: protein stability index of tFT-peptide fusion (C-terminal peptide) (PSI (0-1 scale)); higher = more stable (slower turnover)). Details: genetic background: wild type; temperature: 30 C.
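Also: PSI is a weighted mean of sequencing reads over stability bins, variants kept only with over 10 reads, mCherry proximal and sfGFP distal, peptide attached via GGGS linker.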

Sequence | protein stability index
GRSGSGGTWELG | 0.643 ± 0.039
PSTHPPTLPRPC | 0.712 ± 0.024
PLSSPFPPSHPL | 0.763 ± 0.029
TNKNNKKKKEKI | 0.743 ± 0.049
VLIFSSFRSLVF | 0.562 ± 0.081
PMYKYKTSQKDL | 0.6567 ± 0.0057
PGSILFRGVGAS | 0.691 ± 0.035
DVISRSTRIMGE | 0.617 ± 0.018
MGQVMTKQQRKI | 0.668 ± 0.016
PPSPPIPPPPAP | 0.732 ± 0.053
VPGRSPTKSTVS | 0.66808 ± 0.00013
SSLLSPLRSAFL | 0.71 ± 0.066
RGFGSLSKPMCH | 0.711 ± 0.012
PPLLTPPSTLFS | 0.661 ± 0.022
FQAPGGEIMSPS | 0.647 ± 0.012
FHARVEKQFMVM | 0.489 ± 0.031
FPATLPPSYSLI | 0.643 ± 0.017
GDEDVSWLVFMG | 0.762 ± 0.024
RGFGGVLGRVFL | 0.725 ± 0.017
VGTQIGLWVAQV | 0.591 ± 0.041
APNGTPPLSLAS | 0.646 ± 0.017
GGGVWYFSWSFC | 0.595 ± 0.045
FLHSERTLCFIS | 0.537 ± 0.052
PLPSQYANPMIL | 0.664 ± 0.0051
PLTSIDTDPPHI | 0.723 ± 0.022
IVLLNLTHVRSK | 0.647 ± 0.024

Sequence | protein stability index
SPALVRLSLPRP | 0.86 ± 0.14
PLWRPLALSHVS | 0.67 ± 0.012
CFCGGFGVFVIF | 0.593 ± 0.014
GKTRLIEDTQTT | 0.67 ± 0.019
RKKRGKNEERQD | 0.707 ± 0.056
VIRRLSNPCILR | 0.663 ± 0.067
PLSRVEGRVPAI | 0.6663 ± 0.0039
RQWAISRRWVVR | 0.562 ± 0.021
PPPRPPSPPSFL | 0.734 ± 0.041
LDVGSFLALRMR | 0.627 ± 0.036
NINVSFLSNECR | 0.6735 ± 0.0021
PRPISLFPLPPP | 0.693 ± 0.057
PPPFPPAPRHPP | 0.614 ± 0.013
GRLSQWVPNGRA | 0.681 ± 0.076
VPFQEGHVKRFL | 0.665 ± 0.019
RVVEPKWDWRRG | 0.68 ± 0.032
LSLDMVAPTGLA | 0.686 ± 0.014
LVVEAIRSRAFK | 0.6919 ± 0.0028
GKNKRKTYGKRE | 0.722 ± 0.035
GSCTVLPPPGPP | 0.724 ± 0.018
PPHAPPPPPHVP | 0.713 ± 0.039
LPSPPASSPRRS | 0.684 ± 0.025
RTQGVWYHGVRR | 0.745 ± 0.071
DAPEKQDKHINE | 0.719 ± 0.088
CVLSFVRGCLGA | 0.587 ± 0.067
VYACGVDFNVRG | 0.678 ± 0.094

Sequence | protein stability index
GTALERMWLEIE | 0.7387 ± 0.0024
LRIAKSGVGGFA | 0.636 ± 0.029
AVMGQRQAESPV | 0.693 ± 0.067
KSKGVRITKVSN | 0.783 ± 0.02
STRPPVRYHGAS | 0.728 ± 0.066
DTWRADKRGMKV | 0.662 ± 0.052
PPPPPPLPPPLP | 0.704 ± 0.056
PTLFSLLLRAFL | 0.623 ± 0.13
DESWCVPCPSSL | 0.648 ± 0.0065
GGGGAGGRRGTQ | 0.654 ± 0.0077
KKKRKDKTKIDK | 0.658 ± 0.057
SLFSVLSPPYPS | 0.653 ± 0.032
CGWGVWGAKSGR | 0.6289 ± 0.0049
GGGTLGQWCCDV | 0.6835 ± 0.0029
SINPRVYFVDCQ | 0.689 ± 0.034
SLENRFGGFYVG | 0.749 ± 0.066
SPPPLLLPLSPP | 0.727 ± 0.047
VPDDGVLLSVLE | 0.7182 ± 0.0017
SPPATPWPPDLR | 0.627 ± 0.051
PHSVPPLTFPTS | 0.689 ± 0.037
DRVGGCESRAGR | 0.651 ± 0.04
GGVGGPGLDGWK | 0.676 ± 0.059
SRGLVRGPMSGR | 0.661 ± 0.053
VGVRCVGVLFGV | 0.637 ± 0.0072
TLPSPPPRPPPA | 0.702 ± 0.061
TLWLSGGGGMVI | 0.731 ± 0.04

Sequence | protein stability index
PCPVLPLPPFYL | 0.728 ± 0.0074
RKGNHAHEPSCI | 0.686 ± 0.0034
SWGRYSYIEVMR | 0.7022 ± 0.0057
YEEGRGEWIKKI | 0.632 ± 0.051
PPSPEPGSPHRF | 0.734 ± 0.018
VHWVVFSVPRQA | 0.73 ± 0.033
RIQYKKKNRKGI | 0.628 ± 0.037
GARRSAVPWSPK | 0.723 ± 0.018
GFHCRLRVSTFG | 0.585 ± 0.019
PSSPPVLPLHFH | 0.728 ± 0.019
DGTTAIAGPHPT | 0.629 ± 0.052
ILPFYAEGQLKF | 0.649 ± 0.05
CSVCMSSSRLFS | 0.733 ± 0.014
AVPGLPLWWQPS | 0.746 ± 0.028
HPNGVMIGKNPT | 0.702 ± 0.023
MRDRDSVDNMDG | 0.666 ± 0.025
VPRRSLLSPPPP | 0.668 ± 0.023
RGRGKAGGETTV | 0.686 ± 0.035
GGALDQADGGRS | 0.7269 ± 0.0014
NGMKDKTKIAKI | 0.701 ± 0.008
PPPPYPPHPPSA | 0.712 ± 0.027
LEPSDMDTDSDG | 0.706 ± 0.018
WDGWPTGSGGTG | 0.72654 ± 0.00043
AGPWMESPTKSC | 0.702 ± 0.023
VCSGSGIGNLFE | 0.7912 ± 0.0019
SGSSIAVLPTPC | 0.747 ± 0.11

Sequence | protein stability index
CGGCPGCDIHMG | 0.655 ± 0.082
LYHFYTASPCLI | 0.536 ± 0.044
ALPPSPLLPTLP | 0.702 ± 0.062
FSFPAPRGLLWV | 0.547 ± 0.027
IFRSLDFVFYFT | 0.646 ± 0.097
GGWHVVGGAGVG | 0.564 ± 0.01
RSDCLIDSRMVD | 0.694 ± 0.094
SLRSSLFSPHHC | 0.649 ± 0.044
NSVPSPSRSLPP | 0.666 ± 0.081
VSGCPVVFRSYC | 0.693 ± 0.024
LHPLHSSSPRVS | 0.704 ± 0.026
RWATLSREFYQI | 0.526 ± 0.023
GHLGLFEEETGG | 0.711 ± 0.053
PPRPPPPPRSTS | 0.672 ± 0.024
KVQRINNKKERK | 0.677 ± 0.044
WPAPLPPTRPLP | 0.722 ± 0.038
HSQPPRRPSTNP | 0.792 ± 0.033
TAHHTRPQYLPL | 0.622 ± 0.022
NQPSHPRPHAER | 0.666 ± 0.045
PPPPPPLLPSPL | 0.705 ± 0.069
PLSPPLPRPPPL | 0.649 ± 0.11
GSHGRLSWHVSR | 0.7008 ± 0.00074
FPWFYPNHLEVP | 0.698 ± 0.063
GPLVQVTSYSRY | 0.691 ± 0.0077
RLPHPHPVRSLP | 0.7 ± 0.022
GVSWMRAGFEFM | 0.779 ± 0.021

Sequence | protein stability index
PRGTFARSRSTG | 0.7156 ± 0.0027
ERMLHGTATSVW | 0.736 ± 0.046
GPGSGWWVSCSL | 0.751 ± 0.04
PNPPPPRPTPTP | 0.6688 ± 0.0049
LGGGGRGFAGRK | 0.618 ± 0.029
VLLHFRSFAPPV | 0.613 ± 0.008
PPPWPLPPGRLP | 0.703 ± 0.059
LLGRGVSLFRCG | 0.643 ± 0.3
IYSPQIPTPPVL | 0.664 ± 0.058
GSTSLILSMSPA | 0.693 ± 0.027
YIHGFRLFGCVD | 0.668 ± 0.031
DLQKKKEILSQK | 0.707 ± 0.029
RFGGVWRCRGFV | 0.696 ± 0.031
WRGRCGPVLGFC | 0.659 ± 0.027
RILVFCPSSFGL | 0.64 ± 0.018
INYSNQNKINRW | 0.6294 ± 0.00076
NPDVYKRNYQHK | 0.605 ± 0.035
LSVVLARLCQGS | 0.6842 ± 0.0052
PPPLPFPPSPPL | 0.681 ± 0.063
MSRRHDQESIHV | 0.673 ± 0.021
VVLPLCRVPSHW | 0.688 ± 0.05
GGGSLWWDVGYG | 0.6649 ± 0.0016
AIRSSRMPLGSA | 0.668 ± 0.07
KKKKKQKKKKGT | 0.713 ± 0.034
LPQSSRKEAHHH | 0.78 ± 0.062
VVKKDTHVKRKT | 0.636 ± 0.027

Sequence | protein stability index
KSVSIKGKFTSK | 0.6494 ± 0.00087
GWCGGAIIRAWD | 0.678 ± 0.039
LALFDPAQRHAR | 0.704 ± 0.052
TEINEAQNIPEK | 0.6688 ± 0.0027
HVPRFLPFLSSL | 0.739 ± 0.033
ERSQTKIANDKK | 0.719 ± 0.042
FCYVEDLSVSVD | 0.611 ± 0.0068
VVCRTSPVCLGK | 0.672 ± 0.019
HSSLPQPRELRT | 0.674 ± 0.021
TPLPPSALPLPL | 0.724 ± 0.066
TGLRLFGVLSLI | 0.607 ± 0.016
SPPPPPALPEYQ | 0.6877 ± 0.0012
LHPPRPTPKHPA | 0.608 ± 0.0093
WWEFSCGFVVGG | 0.671 ± 0.098
RTQRGRMVGEQG | 0.732 ± 0.11
FYAGELSCRHQT | 0.694 ± 0.025
PPPPATRPSPCY | 0.706 ± 0.048
IREQGQSLCKST | 0.603 ± 0.029
PPPSPSPPPAPG | 0.6941 ± 0.006
TSKVEVDKGKLE | 0.723 ± 0.051
RARPPPQLHLSP | 0.745 ± 0.012
GCCGGRLWEGGG | 0.707 ± 0.013
QPPLPPPLPGSP | 0.741 ± 0.085
GLWSGWGMVGCV | 0.737 ± 0.047
EEGVARYVERWV | 0.675 ± 0.0075
RSSDRGDVRATC | 0.689 ± 0.062

Sequence | protein stability index
CSGFPPPPHSSL | 0.6812 ± 0.00089
PSPPPPPALPSH | 0.66 ± 0.13
SRGLPRLLCPPP | 0.747 ± 0.025
GVLPRPPPTEGT | 0.722 ± 0.041
HRCPSPPWFHPS | 0.752 ± 0.071
RGGRGLECAFYI | 0.7903 ± 0.001
STSAPPRVPTPR | 0.704 ± 0.078
RTRAPSKHAPER | 0.841 ± 0.16
SPPPPPPRPLTP | 0.672 ± 0.027
FLRPALACDVYN | 0.737 ± 0.05
VGAFEGDWGVRH | 0.671 ± 0.099
PLPPPPALILFP | 0.6856 ± 0.003
RLITGTKLFNGM | 0.765 ± 0.045
LRLPSHHPLCYF | 0.684 ± 0.011
SRSCRHGELKFA | 0.718 ± 0.0097
AGRGRHPRSTWR | 0.688 ± 0.053
KQIPLFILRPQT | 0.704 ± 0.1
FGVRTLTFISRT | 0.637 ± 0.0081
VFCGGGRFRCSR | 0.651 ± 0.023
LRLPPPLCPLRS | 0.623 ± 0.054
